For eight substances, binding, log10 fold luciferase activity over the negative control and log10 fold change of luciferase signal against wild-type CmrT (log10 fold change) results are on record in PMC12548384.

The target in data set [1] is T1, CmrR (Clostridioides difficile R20291) (UniProt A0A9R0CG09).
T1 sequence: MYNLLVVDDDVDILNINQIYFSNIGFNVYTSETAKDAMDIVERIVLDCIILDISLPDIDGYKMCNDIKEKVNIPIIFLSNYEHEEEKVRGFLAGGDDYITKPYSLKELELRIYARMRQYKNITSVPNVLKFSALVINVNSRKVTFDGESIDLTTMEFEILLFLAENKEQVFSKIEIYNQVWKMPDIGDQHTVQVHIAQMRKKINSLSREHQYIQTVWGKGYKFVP
Put plainly: EMSA. The conditions noted are these: EMSA: 15 nM probe, 1x binding buffer 20 mM Tris pH 8, 1 mM EDTA, 10 mM MgCl2, 100 mM NaCl, 5% glycerol, plus half volume protein in His6 buffer (10 mM Tris …). (In EMSA bound probe runs differently from free probe, usually more slowly.)

For data set [2], the target named is CmrT fused to the smbit or lgbit portion of split luciferase (C. difficile two-hybrid) (Clostridioides difficile R20291). Nature of the data set: split reporter (BiFC, NanoBiT); C. difficile bacterial two-hybrid with split luciferase (smbit, lgbit) from one ATc-inducible transcript; 200 ng/mL ATc for 1 h in BHIS-Tm10; Nano-Glo reagent; luminescence per OD600.
For data set [3], the target named is CmrT-D9A fused to the smbit or lgbit portion of split luciferase (C. difficile two-hybrid) (Clostridioides difficile R20291). Described as above.
In data set [4] the target is CmrT-K102A fused to the smbit or lgbit portion of split luciferase (C. difficile two-hybrid) (Clostridioides difficile R20291). The data set is described as above.

In the case of “ATTCAAGAATTGTTCAAAAATACTTAAGTATTATAGTCTAGTTTGTAAAGATATTATAAAATAATAATACTAGTTATATATGAAAATAAAACATTATAATTTGTAATAATTATAAAACTTGAGATTATGATTAAAATACCTTTGAATGGAGTGGTGTAATGTATAATTTACTGGTTGTAGATGATGATGTTG (double strand) [probe 4 (TSS4, 192 bp)]”, the binding result in data set [1] was “binds more weakly”.
On the same count and under the same terms, under “CTAGCCAATAGACAAGTTTCTAGAAAAATAATAAATTTATAAGTGAAAATGACTTTAAGCTCCATTCTCCAACAATCGGAGACTTTAATTAGTATTTAATAATAAATCTTAATGTTCAATACAATATTCAAGAATTGTTCAAAAATACTTAAG (double strand) [probe 9 (cmr switch in other orientation than probe 6)]” stands “binds”.
In data set [2], “CmrT fused to the smbit or lgbit portion of split luciferase (C. difficile two-hybrid) (natural protein)” showed a log10 fold luciferase activity over the negative control of 3.6 log10 fold.
Turning to “CmrT-D9A fused to the smbit or lgbit portion of split luciferase (C. difficile two-hybrid) (natural protein)”, the log10 fold change of luciferase signal against wild-type CmrT (log10 fold change) in data set [3] was -1.27.
Regarding “CmrT-K102A fused to the smbit or lgbit portion of split luciferase (C. difficile two-hybrid) (natural protein)”, in data set [4], the log10 fold change of luciferase signal against wild-type CmrT (log10 fold change) was -0.64.
As for “GCCAAAATTTCACCTATCAATAAAAATCTTAACGACTAATACTCTTATTTTCAAATTTTGCAACATTTTTGTTAATTTTAAAGCAAAAAAAGACTATGCAATATAAAAATTATATTCATAGCCGGTTGCACCACTAACTCCATATATCTCC (double strand) [probe 2]”, the binding entry in data set [1] is recorded as “no binding”.
The same measure, in the same setting: next, “GTATTTAATAATAAATCTTAATGTTCAATACAATATTCAAGAATTGTTCAAAAATACTTAAGTATTATAGTCTAGTTTGTAAAGATATTATAAAATAATAATACTAGTTATATATGAAAATAAAACATTATAATTTGTAATAATTATAAAACTTGAGATTATGATTAAAATACCTTTGAATGGAGTGGTGTAATGTATAATTTACTGGTTGTAGATGATGATGTTG (double strand) [probe 7 (TSS4, 226 bp)]”: “binds”.
On the same count and under the same terms, under “TTGCACCACTAACTCCATATATCTCCAGATGCCCAATAATAAGATATACTTCTCAGTTTCTAAAATATTTTTATTAAAAATCTTTTATATATTTTCATAAATTTCTTTTTTATTCTAACATTGTAATATTATTTTGTCAATATTTCCATATTTTTAGATATAAGATACTAAAATACCTATTTTATCTAAAGATATTTATATTTCTACATTCAATAATAGACAATACCCTGCAAGTTAAAGCATC (double strand) [probe 1 (upstream of TSS1)]” stands “no binding”.
